Measurements reported in the supplement of paper PMC7125110.
± gives the standard error. This sample holds only a part of the variants without activity.

B1: glmS ribozyme (parent)
chain: AUAAAAGCGCCAGAACUACAGAAAUGUAGUUGACGAGGAGGAGGUUUAUCGAAUUUUCGGCGGAUGCCUCCAAA

Variants of: B1
Assay: self-cleavage kobs at 2500 uM GlcN6P; higher = faster cleavage; RNA array
Conditions: with glucosamine-6-phosphate
In short: (§1)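 Barcoded ribozyme variants on sequenced MiSeq chips were transcribed in situ by E. coli RNA polymerase and followed at 37 °C through a hybridised Cy3 probe. Glucosamine-6-phosphate at 40 μM to 10 mM in HEPES/KCl/Mg(OAc)2 buffer was flowed in, and tiles were imaged over ~14 h. Signals were normalised to baseline and to non-cleaving reference variants, and per-tile medians were fit to one- or two-exponential decays to give kobs. Weighted Michaelis–Menten fits across concentrations gave kcat and KM.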

Variant | self-cleavage kobs at 2500 uM GlcN6P [s⁻¹]
G32U A36U G37C U47G A52C C67G | < 1e-05
C16U C58U U69G | 7.44e-05 ± 2.1e-05
U30C G35C C50A C68A | < 1e-05
A15U A39U U69C | 0.000466 ± 0.00018
A15U U49G G66U | < 1e-05
A15G G38U G60A | < 1e-05
C16U G51U A52C C68A C70U C71U | < 1e-05
U31C A42U A52C C71A | < 1e-05
C16U C50G U54A | 9.89e-05 ± 3.1e-05
C16A G40U U54C C71U | 8.78e-05 ± 1.5e-05
A33C G37A G60C | < 1e-05
A15C G35C U69C | < 1e-05
A15U G35C G38U U47G U69G | < 1e-05
G32C C50U U69A | 0.000245 ± 8.3e-05
A14G U30C U47A | 0.000323 ± 8.4e-05
U31G A52C C58G | < 1e-05
G29U A36U A42U U56G G66U | < 1e-05
A14U G38C A42U | < 1e-05
G29C G40U U46C C67A | < 1e-05
C16A G66A C71G | 5.24e-05 ± 2.5e-05
G32C A33C U47C A64C | < 1e-05
A15G U30C G51U U65C | < 1e-05
A15C G37U A39C G41A G63U G66C | < 1e-05

Variant | self-cleavage kobs at 2500 uM GlcN6P [s⁻¹]
C16A G40U U57A C67U | < 1e-05
A14U C50G G60C | 0.000405 ± 0.00014
A15U C58G | 2.95e-05 ± 1e-05
U30C G35A G37U C70A | 0.000153 ± 4.9e-05
G26U G29U U55A C70A | 8.18e-05 ± 2.7e-05
A15G A36G G44U G60C | < 1e-05
U30C A36U A48C | < 1e-05
G32U G37C A42C | < 1e-05
U30G G62A A64U C71U | < 1e-05
A15U C61U G62U | < 1e-05
G29A U69C C70U | 5.97e-05 ± 1.6e-05
U30G G59C U65G | < 1e-05
C16A U31G G32U | 9.46e-05 ± 1.9e-05
A14U C16U C58U | 5.54e-05 ± 1.5e-05
A15C U30C C68G | 0.000192 ± 6.4e-05
A14U G40A G43A U45G | 0.000402 ± 8.4e-05
C16U C34A A36C C58A | < 1e-05
A15G U45C U65G C67U | 0.000125 ± 3.7e-05
A15C G60A G62U | < 1e-05
A15G A39C U45A U56C | 0.000239 ± 5.6e-05
C16A U30A U65A | 5.07e-05 ± 1.8e-05
U31C C34G G35U C68G | 0.000147 ± 6.7e-05
A15U G29U C61U | < 1e-05

Variant | self-cleavage kobs at 2500 uM GlcN6P [s⁻¹]
A15G G59U G63U | < 1e-05
U30A A36C U45C | < 1e-05
G29C G35U G40U | < 1e-05
A15U C58G C68U | 6.36e-05 ± 2.9e-05
G32U A42U C68A | < 1e-05
G29C U46G U55G | 3.45e-05 ± 1.5e-05
A33G U69G | 5.67e-05 ± 1.7e-05
G32U G63C C71G | 6.45e-05 ± 3.2e-05
A14U C16A G63A | < 1e-05
U31G G38C G43U U47A A48C | < 1e-05
A15G G51A U57C | < 1e-05
A15C A36C A48U U57C | < 1e-05
U31G A39U U55G C71U | 0.0043 ± 0.00067
U31G G35C G41A A53U G63A | < 1e-05
G32A U45C | 0.000112 ± 3.8e-05
C16U G43C U45G | 0.000762 ± 0.00024
C16A A39U C71A | 6.01e-05 ± 1.6e-05
G29U G32C A42C U57G | < 1e-05
A15U G41A C50G C71U | < 1e-05
U31A A39U C70U | 0.00182 ± 0.0009
A14G G40A G41C | 0.00048 ± 0.0001
G32C G35C G43C C58U U69C | < 1e-05
A33G G37A A52U | < 1e-05

Variant | self-cleavage kobs at 2500 uM GlcN6P [s⁻¹]
A15U U30G C58U | 2.92e-05 ± 1.5e-05
U30A G38A A52G | < 1e-05
U30C G38C U46C | < 1e-05
C16G G66A U69G | 5.74e-05 ± 2.8e-05
G29C G59A G66C | < 1e-05
A15U U30C C61G | < 1e-05
A15U U54G C58A | 3.84e-05 ± 1.4e-05
A14G U57A U65G | 4.18e-05 ± 1.4e-05
A15G U30A C71U | 0.0164 ± 0.0034
G29C G62A C70G | 3.86e-05 ± 1.9e-05
G32U U55A C70U | 0.000404 ± 8e-05
G32A C68G C70G | < 1e-05
C16G G38A U47C G62A | < 1e-05
U31A G41U C70U | 0.00307 ± 0.00088
G29A G32U G60C | < 1e-05
A15G G35C A64G | < 1e-05
G29A A42C A64U | < 1e-05
G29A U47A A52U | 4.18e-05 ± 1.7e-05
U30G G40U U57G | < 1e-05
C16U G35U G38U C50A | < 1e-05
U31G U55A C67A | 0.00299 ± 0.00085
A15C G38A C67U | < 1e-05
C16U U55G C67G | 0.000952 ± 0.00032

Variant | self-cleavage kobs at 2500 uM GlcN6P [s⁻¹]
U31A A52G C70G | 5.02e-05 ± 1.1e-05
A15U U55G G66U | 7.43e-05 ± 1.6e-05
A15U G38U U69G | 0.000183 ± 4.2e-05
G32U G41U G44A C70U | < 1e-05
A33C G37A G40C A42C | < 1e-05
A14G G51C G62C U65A C68G C70A | < 1e-05
U30G C67U C71G | 0.00027 ± 9.4e-05
U30G G35A G51A C70A | < 1e-05
U30A G38U G40C | < 1e-05
U31C A39G U49G C70U | 2.73e-05 ± 1.4e-05
C16U U56C G63A G66U | < 1e-05
A14U G29U A48U A53U G62U | < 1e-05
A15G U31G G32U U45A | 0.000424 ± 0.00012
G32C U55A | 4.27e-05 ± 1.5e-05
C16U A36C A52C C61A | < 1e-05
U30A U31A U57A C71U | 0.000133 ± 3.1e-05
G32A A39C C50U | < 1e-05
A33G U47A A53G C70U | < 1e-05
C16U G29A G41U G51U | < 1e-05
U31C A36U U47C | < 1e-05
A15U G29C G40U | 3.13e-05 ± 1.2e-05
A15C U47G C68G | 5.59e-05 ± 1.6e-05
G26U U54C G59U U69G | < 1e-05

Variant | self-cleavage kobs at 2500 uM GlcN6P [s⁻¹]
U30G A33U G35C U46C | < 1e-05
U30C C58G C70U | 5.76e-05 ± 1.9e-05
A33C G38C A48G U56C | < 1e-05
A15C U45G U54A | 0.000589 ± 0.00012
C16A A36U C68G | 0.000692 ± 0.0002
A14U G29U G32C U56C C68A C70U | < 1e-05
G29U A42C C61A | < 1e-05
A33C A36U G37A U47C | < 1e-05
A14U U30A C70U | 0.000871 ± 0.00021
U31G C61A C67A | 0.000101 ± 2.8e-05
A14U C16A U31G G32U | 0.000112 ± 4.4e-05
C16A U56G C70U | 0.000265 ± 6e-05
G32A A42U U46C | < 1e-05
A14U G40C A64G | 6.98e-05 ± 1.7e-05
A15G G32C C70G | < 1e-05
U30A U31G A48C | 6.79e-05 ± 1.6e-05
U31G A53U C70A | 0.000207 ± 6.4e-05
U31C G32U U54C C58A | 0.000137 ± 4.2e-05
U30G U57A G60U | < 1e-05
A14U G44A C50A | < 1e-05
C16A A36G C67G | < 1e-05
A22C C34G A42C C50U G66U C68U U69G C70G C71U | < 1e-05
G32U C34A G43C C71G | < 1e-05

Variant | self-cleavage kobs at 2500 uM GlcN6P [s⁻¹]
C16U U30A U65A | 8.89e-05 ± 1.9e-05
G32U U45C | 1.98e-05 ± 7.1e-06
U30G U46C C50A A64C | < 1e-05
A15C C16U U17A C70G | 7.4e-05 ± 1.7e-05
C16A C34U G51U | < 1e-05
A14G G38C C61U | < 1e-05
G29U G32U A42G C71A | 4.56e-05 ± 1.7e-05
C16G U65A C71U | 0.000341 ± 8.1e-05
A15U G40U U49A G60U | < 1e-05
G29C A48C U49C | < 1e-05
A33G A36C G44C U45A C50U C71A | < 1e-05
G29U U47A U69G | 7.38e-05 ± 1.7e-05
U31C G43C U65G | < 1e-05
C16A G66A C68U | 6.12e-05 ± 1.5e-05
A15C A39U G59C U69C | < 1e-05
A15U A36G A39U | < 1e-05
G29U U49A C70G | 5.3e-05 ± 1.9e-05
A14U U65A U69C | 0.000173 ± 4.9e-05

Variants of: B1
Assay: self-cleavage kobs at 10000 uM GlcN6P; higher = faster cleavage; RNA array
Conditions: with glucosamine-6-phosphate
In short: as §1

Variant | self-cleavage kobs at 10000 uM GlcN6P [s⁻¹]
A15U G35C G38U U47G U69G | 0.000954 ± 0.0003
A14G U30C U47A | 0.000556 ± 8e-05
A14U G38C A42U | < 1e-05
C16A G40U U57A C67U | < 1e-05
A15U C58G | 4.63e-05 ± 1.2e-05
G29A U69C C70U | 7.72e-05 ± 1.5e-05
U31C C34G G35U C68G | 0.000118 ± 4.1e-05
G32A U45C | 9.73e-05 ± 2.3e-05
A14G U57A U65G | 6.87e-05 ± 1.5e-05
U31A A52G C70G | 6.16e-05 ± 1.8e-05
A14U G29U A48U A53U G62U | < 1e-05
G32C U55A | 9.57e-05 ± 1.5e-05
C16U G29A G41U G51U | < 1e-05
G29U A42C C61A | < 1e-05
A14U C16A U31G G32U | 9.26e-05 ± 2.2e-05
G32U C34A G43C C71G | < 1e-05
G32U U45C | 4.42e-05 ± 5.9e-06
C16G U65A C71U | 0.000346 ± 8.7e-05
A15U A36G A39U | < 1e-05
A14U U65A U69C | 0.000191 ± 3.3e-05
